Data published in patent publication US20120283184A1 (published 2012).

Target: T1, human vascular endothelial growth factor receptor-2 Fc chimera (KDR-Fc) (human, UniProt P35968 20-764)
T1 construct: range 1-764; Purchased from R&D Systems; also called hKDR; human VEGF-R2-Fc; not shown: human IgG1 Fc
Assay: radioactive equilibrium binding, 1 nM KDR-Fc
Method: (§1) To prepare ³⁵S-labeled binding proteins for analysis, mRNA was prepared as described above for RNA-protein fusion production but the linker ligation step was omitted. The mRNA was expressed using rabbit reticulocyte lysate translation kit (Ambion) in the presence of ³⁵S-labeled Met at 30° C. for 1 hour. Expressed protein was purified on M2-agarose Flag beads (Sigma) as described above. This procedure produced the encoded protein without the nucleic acid tail. In a direct binding assay, VEGF-R2-Fc fusions in concentrations ranging from 0 to 200 nM were added to a constant concentration of the purified protein (0.2 or 0.5 nM) and incubated at 30° C. for 1 hour in buffer B. The receptor-binder complexes were captured using Protein A magnetic beads for another 10 minutes at room temperature using a Kingfisher™ The beads were washed with six reaction volumes of buffer B. The protein was eluted from the beads with 100 μL of 0.1 M KOH. 50 μL of the reaction mixture and elution were dried onto a LumaPlate-96 (Packard) and the amount of ³⁵S on the plate was measured using a TopCount NXT instrument (Packard). The amount of fibronectin-based scaffold protein bound to the target was estimated as a percent of radioactivity eluted from Protein A magnetic beads compare to radioactivity in the reaction mixture. Nonspecific binding of fibronectin-based scaffold proteins to the beads was determined by measuring binding in the absence of KDR-Fc and represented less than 1-2% of the input. Specific binding was obtained through subtraction of nonspecific binding from total binding. Data was analyzed using the GraphPad Prizm software (GraphPad Software, Inc, San Diego, Calif.), fitted using a one site, non-linear binding equation.

T1 sequence (P35968 20-764 limits assumed, change not shown, form in doubt): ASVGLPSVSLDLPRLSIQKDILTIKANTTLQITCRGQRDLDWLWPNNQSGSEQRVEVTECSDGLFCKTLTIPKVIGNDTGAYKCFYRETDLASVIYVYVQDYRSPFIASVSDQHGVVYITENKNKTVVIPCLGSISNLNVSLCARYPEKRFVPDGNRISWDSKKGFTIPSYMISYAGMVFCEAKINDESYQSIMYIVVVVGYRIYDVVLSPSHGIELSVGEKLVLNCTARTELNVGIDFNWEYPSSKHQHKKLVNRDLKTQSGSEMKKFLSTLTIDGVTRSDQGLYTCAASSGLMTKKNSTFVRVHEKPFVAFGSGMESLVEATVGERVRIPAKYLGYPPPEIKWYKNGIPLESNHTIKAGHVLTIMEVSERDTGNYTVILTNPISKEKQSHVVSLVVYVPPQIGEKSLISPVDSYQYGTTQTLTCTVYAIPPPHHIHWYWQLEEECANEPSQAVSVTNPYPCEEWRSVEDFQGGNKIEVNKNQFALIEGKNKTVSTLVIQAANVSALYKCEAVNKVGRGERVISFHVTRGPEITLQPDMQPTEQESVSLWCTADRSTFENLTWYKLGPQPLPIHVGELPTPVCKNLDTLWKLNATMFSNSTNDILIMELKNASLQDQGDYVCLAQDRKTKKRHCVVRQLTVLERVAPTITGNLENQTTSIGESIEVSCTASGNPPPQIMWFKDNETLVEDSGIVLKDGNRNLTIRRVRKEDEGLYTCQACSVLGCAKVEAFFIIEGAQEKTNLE

Binding to 1 nM KDR, %	Binder
11%	4′B6 PR4 (designed binder, in vitro translated) EVVAATPTSLLISWRHPHFPTRYYRITYGETGGNSPVQEFTVPLQPPTATISGLKPGVDYTITVYAVTLAQNDHELITPISINYRT
11%	3H9 PR3 (designed binder, in vitro translated) EVVAATPTSLLISWRHPHFPTRYYRITYGETGGNSPVQEFTVPLQPPTATISGLKPGVDYTITVYAVTVSQQNHELLTPISINYRT
10%	3F11 PR3 (designed binder, in vitro translated) EVVAATPTSLLISWRHPHFPTRYYRITYGETGGNSPVQEFTVPLQPPTATISGLKPGVDYTITVYAVTVGLTDHVLLTPISINYRT
12%	3′E8 PR4 (designed binder, in vitro translated) EVVAATPTSLLISWRHPHFPTRYYRITYGETGGNSPVQEFTVPLQPPTATISGLKPGVDYTITVYAVTVAQNDRQLFTPISINYRT
10%	4C4 PR3 (designed binder, in vitro translated) EVVAATPTSLLISWRHPHFPTRYYRITYGETGGNSPVQEFTVPLQPPTATISGLKPGVDYTITVYAVTVAQDDHELFTPISINYRT
13%	4′G8 PR4 (designed binder, in vitro translated) EVVAATPTSLLISWRHPHFPTRYYRITYGETGGNSPVQEFTVPLQPPTATISGLKPGVDYTITVYAVTVAQNGHELLTPISINYRT
10%	3F4 PR3 (designed binder, in vitro translated) EVVAATPTSLLISWRHPHFPTRYYRITYGETGGNSPVQEFTVPLQPPTATISGLKPGVDYTITVYAVTMGYEDHELITPISINYRT
11%	3F5 PR3 (designed binder, in vitro translated) EVVAATPTSLLISWRHPHFPTRYYRITYGETGGNSPVQEFTVPLQPPTATISGLKPGVDYTITVYAVTVAYNEHELYTPISINYRT
12%	3E6 PR3 (designed binder, in vitro translated) EVVAATPTSLLISWRHPHFPTRYYRITYGETGGNSPVQEFTVPLQPPTATISGLKPGVDYTITVYAVTVPQNGHELITMISINYRT
12%	3′E4 PR4 (designed binder, in vitro translated) EVVAATPTSLLISWRHPHFPTRYYRITYGETGGNSPVQEFTVPLQPPTATISGLKPGVDYTITVYAVTVGPNDRELIVPISINYRT
12%	3′D4 PR4 (designed binder, in vitro translated) EVVAATPTSLLISWRHPHFPTRYYRITYGETGGNSPVQEFTVPLQPPTATISGLKPGVDYTITVYAVTLAHNDRELITPISINYRT
10%	4A4 PR3 (designed binder, in vitro translated) EVVAATPTSLLISWRHPHFPTRYYRITYGETGGNSPVQEFTVPLQPPTATISGLKPGVDYTITVYAVTVAQNDHELFTPISINYRT
10%	3G10 PR3 (designed binder, in vitro translated) EVVAATPTSLLISWRHPHFPTRYYRITYGETGGNSPVQEFTVPLQPPTATISGLKPGVDYTITVYAVTVVHNGHEILTPISINYRT

The next lines start with the binder.

Binder	Binding to 1 nM KDR, %
2′DelB10 PR4 (designed binder, in vitro translated) EVVAATPTSLLISWRHPHFPTRYYRITYGETGGNSPVQEFTVPLQPPTATISGLKPGVDYTITVYAVTVTHNDHELLTPISINYRT	11%
1′DelG9 PR4 (designed binder, in vitro translated) EVVAATPTSLLISWRHPHFPTRYYRITYGETGGNSPVQEFTVPLQPPTATISGLKPGVDYTITVYAVTVAQSDHELMTPISINYRT	10%
1′DelD3 PR4 (designed binder, in vitro translated) EVVAATPTSLLISWRHPHFPTRYYRITYGETGGNSPVQEFTVPLQPPTATISGLKPGVDYTITVYAVTLAQNNHELITPISINYRT	12%
2′DelB9 PR4 (designed binder, in vitro translated) EVVAATPTSLLISWRHPHFPTRYYRITYGETGGNSPVQEFTVPLQPPTATISGLKPGVDYTITVYAVTVGPTDHELLTPISINYRT	11%
2′DelB11 PR4 (designed binder, in vitro translated) EVVAATPTSLLISWRHPHFPTRYYRITYGETGGNSPVQEFTVPLQPPTATISGLKPGVDYTITVYAVTVGQNDHELMTPISINYRT	11%
1′DelH7 PR4 (designed binder, in vitro translated) EVVAATPTSLLISWRHPHFPTRYYRITYGETGGNSPVQEFTVPLQPPTATISGLKPGVDYTITVYAVTVGQNDQELLTPISINYRT	11%
1′DelG11 PR4 (designed binder, in vitro translated) EVVAATPTSLLISWRHPHFPTRYYRITYGETGGNSPVQEFTVPLQPPTATISGLKPGVDYTITVYAVTLAQNGHVLITPISINYRT	11%
1′DelC6 PR4 (designed binder, in vitro translated) EVVAATPTSLLISWRHPHFPTRYYRITYGETGGNSPVQEFTVPLQPPTATISGLKPGVDYTITVYAVTVAQNEHELLTPISINYRT	12%
1′DelA4 PR4 (designed binder, in vitro translated) EVVAATPTSLLISWRHPHFPTRYYRITYGETGGNSPVQEFTVPLQPPTATISGLKPGVDYTITGYAVTVAQNDHELFTPISINYRT	13%
3D11 PR3 (designed binder, in vitro translated) EVVAATPTSLLISWRHPHFPTRYYRITYGETGGNSPVQEFTVPLQPPTATISGLKPGVDYTITVYAVTLGQENQELITPISINYRT	10%
3D4 PR3 (designed binder, in vitro translated) EVVAATPTSLLISWRHPHFPTRYYRITYGETGGNSPVQEFTVPLQPPTATISGLKPGVDYTITVYAVTVGWNDHELITPISINYRT	10%
1′DelB10 PR4 (designed binder, in vitro translated) EVVAATPTSLLISWRHPHFPTRYYRITYGETGGNSPVQEFTVPLQPPTATISGLKPGVDYTITVYAVTVARNDHELMTPISINYRT	11%
3C5 PR3 (designed binder, in vitro translated) EVVAATPTSLLISWRHPHFPTRYYRITYGETGGNSPVQEFTVPLQPPTATISGLKPGVDYTITVYAVTGDHNDRELMTPISINYRT	12%
1′DelH9 PR4 (designed binder, in vitro translated) EVVAATPTSLLISWRHPHFPTRYYRITYGETGGNSPVQEFTVPLQPPTATISGLKPGVDYTITVYAVTVGQNDHELITPISINYRT	10%
3A8 PR3 (designed binder, in vitro translated) EVVAATPTSLLISWRHPHFPTRYYRITYGETGGNSPVQEFTVPLQPPTATISGLKPGVDYTITVYAVTEAHHGHELMIPISINYRT	12%
1′DelC5 PR4 (designed binder, in vitro translated) EVVAATPTSLLISWRHPHFPTRYYRITYGETGGNSPVQEFTVPLQPPTATISGLKPGVDYTITVYAVTLAQNDHEIMTPISINYRT	11%
2H10 PR3 (designed binder, in vitro translated) VSDVPRDLEVVAATPTSLLISWRHPHFPTRYYRITYGETGGNSPVQEFTVPLQPPTATISGLKPGVDYTITVYAVTLAPSARELMTPISINYRT	10%
2H12 PR3 (designed binder, in vitro translated) VSDVPRDLEVVAATPTSLLISWRHPHFPTRYYRITYGETGGNSPVQEFTVPLQPPTATISGLKPGVDYTITVYAVTEGYQNHELSVPISINYRT	10%
2′A1-PR4 (designed binder, in vitro translated) VSDVPRDLEVVAATPTSLLISWRHPHFPTRYYRITYGETGGNSPVQEFTVPLQPPTATISGLKPGVDYTITVYAVTSGHNDHMLMIPISINYRT	11%
2′G11-PR4 (designed binder, in vitro translated) VSDVPRDLEVVAATPTSLLISWRHPHFPTRYYRITYGETGGNSPVQEFTVPLQPPTATISGLKPGVDYTITVYAVTGGQMNRVLMTPISINYRT	12%
2′D5-PR4 (designed binder, in vitro translated) VSDVPRDLEVVAATPTSLLISWRHPHFPTRYYRITYGETGGNSPVQEFTVPLQPPTATISGLKPGVDYTITVYAVTVAWNDHMLMTPISINYRT	11%

Target: T2, Flk-1-Fc (mouse vascular endothelial growth factor receptor-2 Fc chimera) (mouse, UniProt P35918 20-762)
T2 construct: Bought from R&D Systems; also called mouse VEGFR-2-Fc; Fc part of the bought chimera not given
T2 sequence (P35918 20-762, change not shown): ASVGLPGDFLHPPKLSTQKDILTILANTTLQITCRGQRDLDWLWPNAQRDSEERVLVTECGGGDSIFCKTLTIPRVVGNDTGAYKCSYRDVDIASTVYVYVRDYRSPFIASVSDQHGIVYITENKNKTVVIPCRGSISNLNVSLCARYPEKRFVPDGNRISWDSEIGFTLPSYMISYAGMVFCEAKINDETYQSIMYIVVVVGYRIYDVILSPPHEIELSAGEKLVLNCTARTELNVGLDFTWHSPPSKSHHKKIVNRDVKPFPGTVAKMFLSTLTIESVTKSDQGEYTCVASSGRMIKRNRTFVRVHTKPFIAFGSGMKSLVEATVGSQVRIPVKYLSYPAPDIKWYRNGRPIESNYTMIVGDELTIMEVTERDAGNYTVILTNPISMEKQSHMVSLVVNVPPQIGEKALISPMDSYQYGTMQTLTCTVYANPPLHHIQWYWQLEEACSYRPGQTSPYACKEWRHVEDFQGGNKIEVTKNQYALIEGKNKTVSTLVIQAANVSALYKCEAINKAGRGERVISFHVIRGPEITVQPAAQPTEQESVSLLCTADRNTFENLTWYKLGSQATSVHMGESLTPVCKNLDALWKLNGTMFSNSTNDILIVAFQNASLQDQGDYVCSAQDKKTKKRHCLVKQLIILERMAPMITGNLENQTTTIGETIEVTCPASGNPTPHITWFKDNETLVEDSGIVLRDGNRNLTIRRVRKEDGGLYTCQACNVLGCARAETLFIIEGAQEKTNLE
Assay: radioactive equilibrium binding assay, % bound at 1 nM Flk-1-Fc
Method: as §1

Binding to 1 nM Flk-1, %	Binder
21%	B11 (designed binder, 10Fn3 clone, Del 1-8) EVVAATPTSLLISWRHPHFPTRYYRITYGETGGNSPVQEFTVPLQPPTATISGLKPGVDYTITGYAVTVERNGRELKTPISINYRT
